From patent publication US20210170043A1, “DC-SIGN ANTIBODY CONJUGATES COMPRISING STING AGONISTS” (NOVARTIS AG, priority 2018, published 2021)
Residue numbers refer to the chain shown, from its start. Numbers in names are those of the source.

T1: human L-SIGN (Homo sapiens, UniProt Q9H2X3)
T1 construct: expressed in transfected cells; host or cells: K562, retroviral transduction
T1 sequence (Q9H2X3 1-399): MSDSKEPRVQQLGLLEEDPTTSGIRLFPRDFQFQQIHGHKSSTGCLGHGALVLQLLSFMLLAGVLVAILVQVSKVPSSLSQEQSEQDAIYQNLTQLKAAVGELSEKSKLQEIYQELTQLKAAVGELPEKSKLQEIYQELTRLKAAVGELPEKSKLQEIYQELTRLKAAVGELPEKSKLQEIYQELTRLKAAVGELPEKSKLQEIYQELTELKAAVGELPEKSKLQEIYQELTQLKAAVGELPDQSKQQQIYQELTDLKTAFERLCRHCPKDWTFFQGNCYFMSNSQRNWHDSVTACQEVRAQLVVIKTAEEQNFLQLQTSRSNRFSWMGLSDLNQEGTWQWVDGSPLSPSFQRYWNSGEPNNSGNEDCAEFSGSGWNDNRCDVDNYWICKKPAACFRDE

T2: human DC-SIGN (Homo sapiens, UniProt Q9NNX6)
T2 construct: expressed in transfected cells
T2 sequence (Q9NNX6 1-404): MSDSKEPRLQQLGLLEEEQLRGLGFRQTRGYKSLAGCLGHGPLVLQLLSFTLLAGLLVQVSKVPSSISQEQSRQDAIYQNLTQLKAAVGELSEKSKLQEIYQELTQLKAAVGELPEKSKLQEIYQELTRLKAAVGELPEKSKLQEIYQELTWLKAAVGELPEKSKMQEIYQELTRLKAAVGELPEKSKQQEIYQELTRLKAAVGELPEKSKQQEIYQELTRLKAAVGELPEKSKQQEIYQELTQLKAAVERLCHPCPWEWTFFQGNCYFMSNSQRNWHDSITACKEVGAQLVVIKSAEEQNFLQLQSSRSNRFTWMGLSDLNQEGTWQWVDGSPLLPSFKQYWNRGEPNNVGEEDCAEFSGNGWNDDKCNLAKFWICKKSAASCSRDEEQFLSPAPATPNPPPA

B1: 952P16 N92Q: optimization of sequences by removal of post-translational modifications, non-preferred sites; substitutions made by site directed mutagenesis (antibody)
heavy: QVTLRESGPALVKPTQTLTLTCTFSGFSLSTSGVSVSWIRQPPGKALEWLALIDWDDDKYYSTSLKTRLTISKDTSKNQVVLTMTNMDPVDTATYYCARTPSGSYGRYFDLWGRGTLVTVSSASTKGPSVFPLAPSSKSTSGGTAALGCLVKDYFPCPVTVSWNSGALTSGVHTFPAVLQSSGLYSLSSVVTVPSSSLGTQTYICNVNHKPSNTKVDKRVEPKSCDKTHTCPPCPAPELLGGPSVFLFPPKPKDTLMISRTPEVTCVVVAVSHEDPEVKFNWYVDGVEVHNAKTKPREEQYNSTYRVVSVLTVLHQDWLNGKEYKCKVSNKALAAPIEKTISKAKGQPREPQVYTLPPSREEMTKNQVSLTCLVKGFYPCDIAVEWESNGQPENNYKTTPPVLDSDGSFFLYSKLTVDKSRWQQGNVFSCSVMHEALHNHYTQKSLSLSPGK
light: DIQMTQSPSTLSASVGDRVTITCRASQSISNWLAWYQQKPGKAPKLLIYKASSLESGVPSRFSGSGSGTEFTLTISSLQPDDFATYYCQQYQSYWTFGQGTKVEIKRTVAAPSVFIFPPSDEQLKSGTASVVCLLNNFYPREAKVQWKVDNALQSGNSQESVTEQDSKDSTYSLSSTLTLSKADYEKHKVYACEVTHQGLSSPVTKSFNRGEC
B2: 952G04 N92Q: optimization of sequences by removal of post-translational modifications, non-preferred sites; substitutions made by site directed mutagenesis (antibody)
heavy: B1 heavy with S37T, T70A
light: B1 light with N31T, K50E
B3: 1G12 Hz: humanized VL and VH domains of antibody 1G12 (antibody)
heavy: QVQLQESGPGLVKPSETLSLTCTVSGFSLTNYGVHWIRQPPGKGLEWIGVIWRGESTDYNAAFMSRVTISKDDSKSQVSLKLSSVTAADTAVYYCARNGGSSGWYFDVWGQGTTVTVSSASTKGPSVFPLAPSSKSTSGGTAALGCLVKDYFPCPVTVSWNSGALTSGVHTFPAVLQSSGLYSLSSVVTVPSSSLGTQTYICNVNHKPSNTKVDKRVEPKSCDKTHTCPPCPAPELLGGPSVFLFPPKPKDTLMISRTPEVTCVVVAVSHEDPEVKFNWYVDGVEVHNAKTKPREEQYNSTYRVVSVLTVLHQDWLNGKEYKCKVSNKALAAPIEKTISKAKGQPREPQVYTLPPSREEMTKNQVSLTCLVKGFYPCDIAVEWESNGQPENNYKTTPPVLDSDGSFFLYSKLTVDKSRWQQGNVFSCSVMHEALHNHYTQKSLSLSPGK
light: DIQLTQSPSFLSASVGDRVTITCKASQDVTSAVAWYQQKPGKAPKLLIYWTSTRHTGVPSRFSGSGSGTEYTLTISSLQPEDFATYYCQQHYTTPLTFGQGTKLEIKRTVAAPSVFIFPPSDEQLKSGTASVVCLLNNFYPREAKVQWKVDNALQSGNSQESVTEQDSKDSTYSLSSTLTLSKADYEKHKVYACEVTHQGLSSPVTKSFNRGEC
B4: 2B2 Chimeric: chimeric antibody chains comprising a murine variable region and human constant region (antibody)
heavy: EVQLQQSGAELVRPGSSVKMSCKTSGYTFTNYGINWVKQRPGQGLEWIGYIYIGNDYTEYNERFKGKATLTSDTSSSTAHIQLNSLTSEDSAIYFCARLYYGSSLYSYAMDYWGQGTSVTVSSASTKGPSVFPLAPSSKSTSGGTAALGCLVKDYFPCPVTVSWNSGALTSGVHTFPAVLQSSGLYSLSSVVTVPSSSLGTQTYICNVNHKPSNTKVDKRVEPKSCDKTHTCPPCPAPELLGGPSVFLFPPKPKDTLMISRTPEVTCVVVAVSHEDPEVKFNWYVDGVEVHNAKTKPREEQYNSTYRVVSVLTVLHQDWLNGKEYKCKVSNKALAAPIEKTISKAKGQPREPQVYTLPPSREEMTKNQVSLTCLVKGFYPCDIAVEWESNGQPENNYKTTPPVLDSDGSFFLYSKLTVDKSRWQQGNVFSCSVMHEALHNHYTQKSLSLSPGK
light: DIVMTQAAPSVSVTPGESVSISCRSSKSLLHSSGNTYLYWFLQRPGQSPQLLISRMSNLASGVPDRFSGSGSGTAFTLRISRVEAEDVGVYYCMQHLEYPYTFGGGTKLELKRTVAAPSVFIFPPSDEQLKSGTASVVCLLNNFYPREAKVQWKVDNALQSGNSQESVTEQDSKDSTYSLSSTLTLSKADYEKHKVYACEVTHQGLSSPVTKSFNRGEC
B5: 960K03 N92S: optimization of sequences by removal of post-translational modifications, non-preferred sites; substitutions made by site directed mutagenesis (antibody)
heavy: QVTLRESGPALVKPTQTLTLTCTFSGFSLSTGGMSVSWIRQPPGKALEWLALIDWDDDKYYSTSLKTRLTISKDTSKNQLVLTMTNMDPVDTATYYCARAHSGSYFDFWGQGTLVTVSSASTKGPSVFPLAPSSKSTSGGTAALGCLVKDYFPCPVTVSWNSGALTSGVHTFPAVLQSSGLYSLSSVVTVPSSSLGTQTYICNVNHKPSNTKVDKRVEPKSCDKTHTCPPCPAPELLGGPSVFLFPPKPKDTLMISRTPEVTCVVVAVSHEDPEVKFNWYVDGVEVHNAKTKPREEQYNSTYRVVSVLTVLHQDWLNGKEYKCKVSNKALAAPIEKTISKAKGQPREPQVYTLPPSREEMTKNQVSLTCLVKGFYPCDIAVEWESNGQPENNYKTTPPVLDSDGSFFLYSKLTVDKSRWQQGNVFSCSVMHEALHNHYTQKSLSLSPGK
light: B1 light with S28R, Y91F, Q92S

Biological target: T1, human L-SIGN
Assay: FACS binding to K562 cells expressing human L-SIGN (selectivity)
Conditions: FACS MFI
Method: (§1) The affinity of various antibodies and ADCs to DC-SIGN and its species orthologues was determined using FACS. Purified IgGs were titrated to determine EC50 values for binding to cell surface expressed DC-SIGN.
(§2) For this purpose, human DC-SIGN expressing or cynomolgus monkey DC-SIGN expressing stable CHO cell lines or K562 expressing DC-SIGN or K562 expressing L-SIGN cell lines were checked for density and viability using VICELL (Beckman Coulter), and washed once with 4° C. PBS. Cells were stained with DAPI (0.5 ug/mL) diluted in PBS for 30 min on ice. Cells were diluted into 4° C. FACS buffer (PBS, 10 mM EDTA, 2% FBS). 125 μl of cells were seeded (10,000 cells/well) into 96-well v-bottom plates (Nunc cat#442587) and centrifuged for 4 min at 1500 rpm at 4° C. Supernatant was removed. Cells were incubated with a serial dilution of each anti-DC-SIGN antibody in FACS buffer at concentrations ranging across several logs with a top concentration no higher than 50 μg/mL for 60 minutes at 4° C. Following incubation, cells were spun down (1500 rpm, 4 min, 4° C.) and washed two times with FACS buffer. A fluorophore-conjugated anti-hFc gamma-AF-647 (Southern Biotechnology) detection antibody was added at 1:400 and samples were incubated for 1 h on ice in the dark. Following incubation, FACS buffer was added, and the cells were spun down (1500 rpm, 4 min, 4° C.) and washed two times with FACS buffer. After the final wash, cells were resuspended in Fixative Buffer (Biolegend, 420801) and 90 μl of FACS buffer followed by readout on the flow cytometry machine (BD LSRFortessa Cell Analyzer; Cat #647177). Geometric Mean fluorescence intensity (MFI) of live, single cells was calculated in Flowjo 10.4.2 and exported into Graphpad Prism7 for EC50 determination.
Selectivity was assessed by measuring apparent binding affinities to isogenic cell pairs engineered to overexpress DC-SIGN as well as cell lines expressing DC-SIGN paralog L-SIGN.

B1 was tested, and the “human L-SIGN K562 EC50” value was >10 µg/mL.
In the case of B2, the “human L-SIGN K562 EC50” value is reported as >10 µg/mL.
For B3, the “human L-SIGN K562 EC50” value was >10 µg/mL.
With B4 the “human L-SIGN K562 EC50” value was >10 µg/mL.

Biological target: T2, human DC-SIGN
Assay: FACS binding to K562 cells expressing human DC-SIGN
Conditions: FACS MFI
Method: as §1, §2

B1 and B2 are within 1.5-fold of each other in “human DC-SIGN K562 EC50” value: 0.024 µg/mL for the first, 0.017 µg/mL for the second.

Compared with B5, B3 is 2.3-fold lower in “human DC-SIGN K562 EC50” value: 0.049 µg/mL for the first, 0.021 µg/mL for the second.

Test system: cynomolgus monkey DC-SIGN
Assay: FACS binding to CHO cells stably expressing cynomolgus monkey DC-SIGN
Conditions: FACS MFI, average
Method: as §1, §2
In a similar experiment the antibodies were tested for cross-reactivity using engineered isogenic matched cell line.

cynomolgus monkey DC-SIGN, sequence (as listed by the source): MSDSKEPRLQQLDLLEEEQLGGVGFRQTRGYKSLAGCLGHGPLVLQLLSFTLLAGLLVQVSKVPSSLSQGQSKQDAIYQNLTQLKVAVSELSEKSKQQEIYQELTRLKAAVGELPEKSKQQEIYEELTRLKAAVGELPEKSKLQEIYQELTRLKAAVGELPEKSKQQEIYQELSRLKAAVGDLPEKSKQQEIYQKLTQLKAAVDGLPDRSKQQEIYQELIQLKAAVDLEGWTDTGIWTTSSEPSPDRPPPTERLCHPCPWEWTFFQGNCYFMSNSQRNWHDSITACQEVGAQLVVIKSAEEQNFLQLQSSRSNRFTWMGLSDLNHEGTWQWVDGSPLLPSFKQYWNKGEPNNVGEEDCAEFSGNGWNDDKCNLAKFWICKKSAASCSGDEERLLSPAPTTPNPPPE

Going from B2 to B5, the “cyno DC-SIGN CHO EC50 (ug/mL) ave.” value rises from 0.02 µg/mL to 0.08 µg/mL (4-fold).

For B3, the “cyno DC-SIGN CHO EC50 (ug/mL) ave.” value was 0.06 µg/mL.

Biological target: T2, human DC-SIGN
Assay: FACS binding to CHO cells stably expressing human DC-SIGN
Conditions: FACS MFI, average
Method: as §1, §2

B2 and B5 are within 1.5-fold of each other in “human DC-SIGN CHO EC50 (ug/mL) ave.” value: 0.07 µg/mL for the first, 0.06 µg/mL for the second.

For B3, the “human DC-SIGN CHO EC50 (ug/mL) ave.” value was 0.07 µg/mL.
